T1: full-length human Nectin4 with C-terminal flag and Myc tags on CHO cells (human, UniProt Q96NY8 32-510)
T1 construct: whole, on cells; also called Nectin4/CHO; CHO/Nectin4; not shown: C-terminal flag and Myc tags of pCMV6-Entry vector
T1 sequence (looked up): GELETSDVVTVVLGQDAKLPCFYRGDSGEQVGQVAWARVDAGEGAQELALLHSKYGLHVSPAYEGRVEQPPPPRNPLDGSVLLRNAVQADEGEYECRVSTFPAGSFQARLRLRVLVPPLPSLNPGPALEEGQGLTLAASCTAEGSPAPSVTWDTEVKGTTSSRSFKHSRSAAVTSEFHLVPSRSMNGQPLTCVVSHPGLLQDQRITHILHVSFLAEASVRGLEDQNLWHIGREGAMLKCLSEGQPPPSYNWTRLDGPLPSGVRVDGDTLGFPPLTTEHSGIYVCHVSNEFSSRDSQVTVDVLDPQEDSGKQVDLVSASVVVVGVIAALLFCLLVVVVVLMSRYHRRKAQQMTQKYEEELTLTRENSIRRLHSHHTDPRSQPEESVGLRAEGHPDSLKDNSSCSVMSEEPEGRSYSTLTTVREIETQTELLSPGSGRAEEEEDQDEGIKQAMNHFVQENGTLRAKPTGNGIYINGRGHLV

T2: human Nectin4-HIS tagged recombinant protein (human, UniProt Q96NY8 32-349)
T2 construct: also called hNectin4-HIS; Nectin4 HIS tagged protein; not shown: HIS tag
T2 sequence (looked up): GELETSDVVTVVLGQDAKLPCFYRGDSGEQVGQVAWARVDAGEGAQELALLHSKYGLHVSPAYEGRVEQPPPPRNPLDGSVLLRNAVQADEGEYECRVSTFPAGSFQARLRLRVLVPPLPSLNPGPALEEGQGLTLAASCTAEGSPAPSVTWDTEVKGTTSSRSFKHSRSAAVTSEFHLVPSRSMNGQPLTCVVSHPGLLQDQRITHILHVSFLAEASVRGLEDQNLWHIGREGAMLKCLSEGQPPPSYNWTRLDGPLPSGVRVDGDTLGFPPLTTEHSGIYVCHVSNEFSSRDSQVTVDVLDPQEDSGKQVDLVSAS

T3: mouse nectin4 protein (mouse, UniProt Q8R007 31-347, limits assumed)
T3 sequence (looked up): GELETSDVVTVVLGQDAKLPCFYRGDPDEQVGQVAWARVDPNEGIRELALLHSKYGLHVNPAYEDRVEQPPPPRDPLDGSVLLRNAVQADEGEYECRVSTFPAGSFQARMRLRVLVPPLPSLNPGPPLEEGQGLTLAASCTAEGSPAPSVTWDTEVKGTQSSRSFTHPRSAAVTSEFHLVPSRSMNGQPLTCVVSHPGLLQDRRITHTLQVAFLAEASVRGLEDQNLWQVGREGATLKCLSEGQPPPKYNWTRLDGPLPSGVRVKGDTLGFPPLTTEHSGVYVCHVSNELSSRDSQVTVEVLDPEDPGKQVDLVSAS


What was measured:
[1] = biological target: T4, CD3 on Jurkat cells (UniProt P07766 23-207, limits assumed); test: cell-based or functional assay
T4 sequence (P07766 23-207 limits assumed): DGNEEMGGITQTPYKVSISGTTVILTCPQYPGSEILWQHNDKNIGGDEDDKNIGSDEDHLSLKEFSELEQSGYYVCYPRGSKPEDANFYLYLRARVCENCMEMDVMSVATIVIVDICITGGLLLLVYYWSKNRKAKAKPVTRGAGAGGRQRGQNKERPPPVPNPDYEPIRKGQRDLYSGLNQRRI

[2] = biological target: T4, CD3 on Jurkat cells; test: flow cytometry on Jurkat cells
Description: Jurkat cells were plated at 100,000 cells/well in a 96-well plate with 50 μL of full media. Anti-Nectin4/CD3 antibodies were 3-fold serial titrated from 20 nM. 50 μL was added to the cells and incubated for 1 hours at room temperature with shaking. Samples were washed one time with flow buffer. […] Samples were washed once with flow buffer. Samples were stained with 100 uL Zombie Fixable Viability Dyes at 1:800 dilution per well and incubated in dark at room temperature for 30 mins. Samples were spun down at 1300 rpm for 5 minutes and washed once with 200 uL flow buffer. Reconstituted samples in 200 uL of flow buffer and read on Attune NxT cytometer. EC50 values for CD3 binding were calculated using Prism 8.1 software.

[3] = biological target: T1, full-length human Nectin4 with …; test: flow cytometry on CHO/Nectin4 cells
Description: Nectin4/CHO Nectin4 cells were plated at 100,000 cells/well in a 96-well plate in 50 μL of full media. Cells were rested 1 hour at 37° C. Anti-Nectin4/CD3 was 3-fold serial titrated from 50 nM. 50 μL was added to the cells and incubated for 1 hours with shaking. Samples were washed one time with flow buffer. […] Samples were washed once with flow buffer. Samples were stained with 100 uL Zombie Fixable Viability Dyes (1:800 dilution) per well and incubated in dark at room temperature for 30 mins. Samples were spun down at 1200 rpm for 5 minutes and washed once with 200 uL flow buffer. Reconstituted samples in 200 uL of flow buffer and read on Attune NxT cytometer. EC₅₀ values for Nectin4 Binding were determined using Prism software.

[4] = biological target: T5, human CD3E HIS tagged protein (human, UniProt P07766 23-126); test: SPR Biacore T200, bispecific captured on Protein A chip, CD3E-HIS injected
T5 construct: not shown: HIS tag
T5 sequence (P07766 23-126 limits assumed): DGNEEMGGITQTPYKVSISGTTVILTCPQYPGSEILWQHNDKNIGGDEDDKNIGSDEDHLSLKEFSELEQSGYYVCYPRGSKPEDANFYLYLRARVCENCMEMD
Description: (§1) The assay was run with Biacore T200 control software version 2.0. For each cycle, 1 ug/mL of anti-hNectin4/CD3 antibody was captured for 60 seconds at flow rate of 10 ul/min on flow cell 2 in 1×HBSP buffer on Protein A sensor chip. 2-fold serial diluted CD3E-HIS or hNectin4-HIS tagged protein was injected onto both reference flow cell 1 and anti-Nectin4/CD3 bispecific captured flow cell 2 for 150 seconds at flow rate of 30 ul/mins followed by wash for 300 seconds. The flow cells were then regenerated with Glycine pH2 for 60 seconds at flow rate of 30 ul/mins. 8 concentration points from 100 nM-0 nM (CD3E-HIS) or 300 nM-0 nM (Nectin4-HIS) was assayed per anti-Nectin4 IgG in a 96 well plate. The kinetics of Anti-Nectin4/CD3 bispecific binding to CD3E and Nectin4 proteins was analyzed with Biacore T200 evaluation software version 3.0. The specific binding response unit was derived from subtraction of binding to reference flow cell 1 from antibody captured flow cell 2. Table 10 below listed the kinetics results. ND means not determined. NA means data not available.

[5] = biological target: T2, human Nectin4-HIS tagged recombinant …; test: ELISA, coated Nectin4 HIS tagged protein, bispecific titrated, anti-Human HRP
Description: (§2) An ELISA assay was developed to determine the EC₅₀ of anti-Nectin4/CD3 bispecific antibodies. Briefly, 384 well plate was immobilized with human CD3E or Nectin4 HIS tagged protein at final concentration of 2 ug/mL in 1×PBS in total volume of 25 uL per well. The plate was incubated overnight at 4° C. followed by blocking with 80 uL of superblock per well for 1 hour. Purified anti-Nectin4/CD3 was 3-fold serial titrated from 100 nM. 25 uL was added to human Nectin4/CD3 immobilized wells and incubated for 1 hour with shaking. The CD3E or Nectin4 binding was detected by adding 25 uL of anti-Human HRP diluted at 1:10000 in 1×PBST. In between each step, the plate was washed 3 times with […] in a plate washer. The plate was then developed with 20 ul of TMB substrate for 5 mins and stopped by adding 20 ul of 2N sulfuric acid. The plate was read at OD450 nm Biotek plate reader and then plotted in Prism 8.1 software to calculate EC50.

[6] = biological target: T2, human Nectin4-HIS tagged recombinant …; test: SPR Biacore T200, bispecific captured on Protein A chip, hNectin4-HIS injected
Description: as §1

[7] = biological target: T5, human CD3E HIS tagged protein; test: ELISA, coated human CD3E HIS tagged protein, bispecific titrated, anti-Human HRP
Description: as §2

[8] = biological target: T1, full-length human Nectin4 with …; test: cell-based or functional assay
[9] = biological target: T3, mouse nectin4 protein; test: ELISA, coated mouse nectin4, IgG titrated, anti-hFc HRP
[10] = biological target: monkey nectin4 protein (monkey); test: ELISA, coated monkey nectin4, IgG titrated, anti-hFc HRP
[11] = biological target: T2, human Nectin4-HIS tagged recombinant …; test: ELISA, coated human Nectin4-HIS, IgG titrated, anti-hFc HRP
Description: An ELISA assay was developed to determine the EC₅₀ of exemplary anti-Nectin4 IgG antibodies. Briefly, 384 well plate was immobilized with human Nectin4-HIS tagged recombinant protein at final concentration of 2 ug/mL in 1×PBS in total volume of 25 uL per well. The plate was incubated overnight at 4° C. followed by blocking with 80 uL of superblock per well for 1 hour. Titration of purified anti-Nectin4 IgG starting at 200 nM 2-fold serial dilution, 25 uL was added to human Nectin4 immobilized wells and incubated for 1 hour with shaking. The Nectin4 binding was detected by adding 25 uL of anti-hFc HRP diluted at 1:5000 in 1×PBST. In between each step, the plate was washed 3 times with 1×PBST in a plate washer. The plate was then developed with 20 ul of TMB substrate for 5 mins and stopped by adding 20 ul of 2N sulfuric acid. The plate was read at OD450 nm Biotek plate reader and then plotted in Prism 8.1 software.

[12] = biological target: T1, full-length human Nectin4 with …; test: flow cytometry, IgG on Nectin4/CHO cells, anti-hFc Alexa fluor 647
Description: 200 nM of purified anti-Nectin4 IgG antibodies were diluted in full medium and incubated with Nectin4/CHO and CHO cells in 96 wells plate on ice for 1 hour. Cells were spun down at 1200 rpm for 5 minutes at 4° C. to remove primary antibodies. Cells were then washed once with 200 uL of full medium per well. Samples were detected with anti-hFc Alexa fluor 647 by adding 100 uL of diluted secondary antibody and incubated at 4° C. for 30 minutes in the dark. Samples were spun down at 1200 rpm for 5 minutes at 4° C. and washed twice with 200 uL of 1×PBS per well. Reconstituted samples in 200 uL of 1×PBS and read on Attune NxT cytometer. Analysis was done by Attune NxT software plotting the overlay histogram of […] proteins binding onto both negative and target cell lines.

[13] = biological target: T2, human Nectin4-HIS tagged recombinant …; test: SPR Biacore T200, IgG captured on Protein A chip, hNectin4-HIS injected
Description: Kinetic analysis of anti-Nectin4 IgG has been assessed by the SPR technology with Biacore T200. The assay was run with Biacore T200 control software version 2.0. For each cycle, 1 ug/mL of anti-hNectin4-IgG was captured for 60 seconds at flow rate of 10 ul/min on flow cell 2 in 1×HBSP buffer on Protein A sensor chip. 2-fold serial hNectin4-HIS tagged protein was injected onto both reference flow cell 1 and anti-Nectin4 IgG captured flow cell 2 for 150 seconds at flow rate of 30 ul/mins followed by wash for 300 seconds. The flow cells were then regenerated with Glycine pH2 for 60 seconds at flow rate of 30 ul/mins. 8 concentration points from 100-0 nM was assayed per anti-Nectin4 IgG in a 96 well plate. The kinetics of Anti-Nectin4 IgG binding to Nectin4 protein was analyzed with Biacore T200 evaluation software version 3.0. The specific binding response unit was derived from subtraction of binding to reference flow cell 1 from antibody captured flow cell 2.

[14] = biological target: T2, human Nectin4-HIS tagged recombinant …; test: ELISA, coated human Nectin4-HIS, antibody titrated, anti-hFc HRP

Row | NFAT reporter EC50 [1] [nM] | EC50 [2] [nM] | EC50 [3] [nM] | Kd [4] [nM] | koff [4] [s⁻¹] | kon [4] [M⁻¹ s⁻¹] | EC50 [5] [nM] | Kd [6] [nM] | koff [6] [s⁻¹] | kon [6] [M⁻¹ s⁻¹] | EC50 [7] [nM] | ADCC Bioreporter assay EC50 [8] [nM] | EC50 [9] [nM] | EC50 [10] [nM] | EC50 [11] [nM] | EC50 [12] [nM] | Kd [13] [nM] | EC50 [14] [nM] | Binder
1 | 0.0038 | 0.169 | 0.146 | 2.23 | 0.00059 | 265000 | 0.019 | 1.22 | 0.00012 | 98800 | 0.005 |  |  |  |  |  |  |  | EP369/EP370/EP289 anti-Nectin4/CD3 bispecific antibody (bispecific antibody, Monovalent format: anti-CD3 sp34 scFv-Fc knob (EP369), EP034-B09 heavy chain hole without ADCC (EP370), EP034-B09 light chain (EP289); also called EP369/370/289) not shown heavy: EVQLVQSGAEVKKPGASVKVSCKASGYTFTGYYMHWVRQAPGQGLEWMGRINPNSGGTNYAQKFQGRVTMTRDTSISTAYMELSGLRSDDTAVYFCARVTYNIGWYIDYWGQGTLVTVSSASTKGPSVFPLAPSSKSTSGGTAALGCLVKDYFPEPVTVSWNSGALTSGVHTFPAVLQSSGLYSLSSVVTVPSSSLGTQTYICNVNHKPSNTKVDKKVEPKSCDKTHTCPPCPAPEAAGGPSVFLFPPKPKDTLMISRTPEVTCVVVDVSHEDPEVKFNWYVDGVEVHNAKTKPREEQYNSTYRVVSVLTVLHQDWLNGKEYKCKVSNKALGAPIEKTISKAKGQPREPQVCTLPPSRDELTKNQVSLSCAVKGFYPSDIAVEWESNGQPENNYKTTPPVLDSDGSFKLVSKLTVDKSRWQQGNVFSCSVMHEALHNHYTQKSLSLSPGK light: QAVVTQPPSVSVAPGKTATITCGGNNIGSKGVHWYQQKPGQAPVLVIYYDTDRPSGIPERLSGSNSGNTATLTISRVEAGDEADYYCQVWDSSSDHPVFGGGTKLTVLGQPKANPTVTLFPPSSEELQANKATLVCLISDFYPGAVTVAWKADGSPVKAGVETTKPSKQSNNKYAASSYLSLTPEQWKSHRSYSCQVTHEGSTVEKTVAPTECS
2 |  |  |  |  |  |  |  |  |  |  |  | 1.43 | 0.037 | 0.043 | 0.035 | 0.017 | 11 |  | 2020EP034-E01 IgG (EP296/EP286) (antibody, V domains shown, Human IgG1) VH: not shown VL: DVVMTQSPLSLPVTPGEPASMSCRSSESLLHRNGFNYLDWYVQRPGQSPKLLIYMGSYRASGVPDRFSGRGSGTDFALKISRVEAEDVGVYYCMQALQSPPLYTFGPGTKLEIKR
3 |  |  |  |  |  |  |  |  |  |  |  | 1.16 | 0.017 | 0.019 | 0.018 | 0.0062 | 1.47 | 0.061 | 2020EP034-B09 IgG (EP299/EP289) (antibody, V domains shown, Human IgG1 with lambda light chain; entries without signal peptide used; also called EP034-B09, mAb) VH: EVQLVQSGAEVKKPGASVKVSCKASGYTFTGYYMHWVRQAPGQGLEWMGRINPNSGGTNYAQKFQGRVTMTRDTSISTAYMELSGLRSDDTAVYFCARVTYNIGWYIDYWGQGTLVTVSS VL: QAVVTQPPSVSVAPGKTATITCGGNNIGSKGVHWYQQKPGQAPVLVIYYDTDRPSGIPERLSGSNSGNTATLTISRVEAGDEADYYCQVWDSSSDHPVFGGGTKLTVLG

Source: US20240368275A1 (ELPIS BIOPHARMACEUTICALS, published 2024)
